Source: patent US11260100B2, “Compositions targeting the interaction domain between p27Kip1 and Brk and methods of use thereof to inhibit p27 Y phosphorylation and cdk4 activity” (The Research Foundation for the State University of New York, priority 2014, dated 2022)
Ends that are not written are not given here.

Tests used:
[1] = test system: metastatic breast cancer; conditions: metastatic breast cancer patients; cited from earlier work
[2] = biological target: T1, Brk phosphorylation of p27 (Homo sapiens, UniProt P46527+Q13882); assay: In vitro Brk phosphorylation of p27 with competitor, pY88/pY74 immunoblot; assay type: biochemical; conditions: increasing amounts of competitor
T1 construct: were incubated with p27 before the addition of full length Brk and ATP; We incubated full length p27 with Src or Brk in the presence of ATP; purchased SignalChem (GST-PTK6/Brk) or Invitrogen (His-PTK6/Brk); host or cells: p27 made in house in E. coli
Description: (§1) FIGS. 3A-3D: SH3:PxxP interaction is required for p27 Y88 phosphorylation. (FIG. 3A) p27 and Brk were incubated with ATP and with increasing concentrations of the PxxP competitor, F58-106, followed by immunoblot analysis with pY88, pY74 and p27 antibodies. Lane 5: +equimolar amount of F58-106 and p27, lane 6: ++2.5×F58-106, lane 7: +++5×F58-106, lane 8: ++++10×F58-106. (FIG. 3B) GST-Brk, p27 and F58-106 were incubated, immunoprecipitated with GST antibodies, followed by immunblot analysis with GST or p27 antibodies. (FIG. 3C) Increasing amounts of GST-SH3, GST-SH2 or GST peptides were incubated with p27, followed by immunoblot analysis with pY88, pY74, p27 and GST antibodies. Lanes 3, 5, 7: 2.5× competitor, lanes 4, 6, […]: 5× competitor. (FIG. 3D) GST-SH3, GST-SH2 or GST peptides were incubated with p27 or ΔK1/K3, followed by metal agarose chromatography and immunoblot analysis with GST and p27 antibodies. Loading control: GST peptides added to the reaction which are not representative of association.
FIGS. 8A-8G: Alt Brk (SEQ ID NO: 17) acts as an endogenous inhibitor of Brk. (FIG. 8A) Flag tagged WT p27 was incubated with increasing amount of Flag tagged Alt-Brk (lanes 5-7) in presence of equal amount of Brk. Lane 5: +equimolar Brk and Alt, lane 6: ++2.5×Alt, lane 7: +++5×Alt Immunoblot analysis was performed using Flag, pY88 and pY74 antibodies. (FIG. 8B) Alt-Brk expressing cells were plated on day 0. They were induced (+Tet) or uninduced (−Tet) on day 1 and cells were harvested on days 2, 3 and 4 Immunoblot analysis was performed using N-terminal Brk, C-terminal Brk, Rb, Ser780 pRb, Flag or Actin antibodies. (FIG. 8C) p27 was immunoprecipitated from induced (+) or un-induced (−) Alt Brk expressing cells and immunoblot analysis was performed with p27, pY88 and pY74 antibodies. (FIG. 8D) Alt Brk or TRE3G vector alone cells were treated with + or −Tet and cell counts were used to monitor proliferation. […] (FIG. 8F) p27 was immunoprecipitated from MCF7 cells that were either contact arrested (G0), asynchronous (A), or serum starved with 1% and 0% serum for 48 h. Immunoblot analysis was performed to probe for p27, pY88 and pY74. IgG and Mv1Lu lysates served as a negative control. (FIG. 8G) Expression of WT or mutant p27s was induced by adding Tetracycline to the culture media. p27 was immunoprecipitated from cell lysates and probed for p27, pY88 and pY74 Immunoprecipitation with IgG served as a negative control.
It appeared that the SH3:PxxP interaction was required for Y88 phosphorylation. […]
To directly verify this, we expressed a Flag-tagged Alt-Brk in bacteria and purified this 15 Kd protein (FIG. 8A). When p27 was incubated with Brk, Y88 and Y74 phosphorylation was detected by immunoblot analysis (FIG. 8A, lane 3). […]

[3] = biological target: T2, GST-Brk (Homo sapiens, UniProt Q13882); assay: GST immunoprecipitation of GST-Brk with p27 and/or F58-106; assay type: binding
T2 construct: this K1-containing peptide was sufficient to associate with full length Brk; purchased SignalChem
Description: as §1
We then performed the converse reaction, and increasing amounts of individual recombinant, GST-tagged pieces of Brk (GST-SH2, GST-SH3) or GST peptides were incubated with p27 before the addition of full length Brk and ATP. The reactions were probed by immunoblot analysis with pY88 and pY74 antibodies (FIG. 3C).

[4] = biological target: T3, WT p27 (Homo sapiens, UniProt P46527); assay: Metal agarose chromatography of His-p27 with GST peptides; assay type: binding; conditions: absence of ATP
T3 construct: made in house; host or cells: E. coli
Description: as §1
(§2) We incubated the GST, GST-SH3, or GST-SH2 peptides with His-tagged versions of p27 and the ΔK1/K3 mutant, isolated complexes by metal agarose chromatography and performed immunoblot analysis with GST antibodies (FIG. 3D). […] However, this binding was independent of the PxxP K1 site (FIG. 3D, lane 3). […]

[5] = biological target: T4, ΔK1/K3 p27 (Homo sapiens, UniProt P46527, K189A/K190A/P188A/P191A/P91A/P92A/P94A/P95A); assay: Metal agarose chromatography of His-ΔK1/K3 p27 with GST peptides; assay type: binding; conditions: absence of ATP
T4 construct: made in house; host or cells: E. coli
Description: as §1, §2

[6] = biological target: T5, Brk SH3 domain (Homo sapiens, UniProt Q13882); assay: Phage-ELISA of GST-PxxP peptides (K1, K2, K3) against SH3 phages; assay type: binding; conditions: GST-fusion PxxP peptides
T5 construct: made in house; host or cells: phage supernatants
T5 sequence (Q13882 8-72 limits assumed): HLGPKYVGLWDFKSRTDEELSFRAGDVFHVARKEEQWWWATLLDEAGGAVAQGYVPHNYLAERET
From the text: (§3) FIGS. 1A-1C: Brk binds to p27 with high affinity in vitro. (FIG. 1A) p27 sequence highlighting the proline tracts of the three putative SH3 domain recruitment sites (PxxP): K1 (90-96), K2 (114-117) and K3 (188-195) (SEQ ID NO: 1). Phage-ELISA-analysis of SFK SH3 interactions with p27 (FIG. 1B) or p27's PxxP motifs (FIG. 1C). Data shown is the mean of three independent experiments±standard deviation after normalization and subtraction of the background binding to GST. (FIG. 1C) Recombinantly produced GST-K1, (amino acids 85-102 of SEQ ID NO: 1), −K2, (amino acids 108-123 of SEQ ID NO: 1), −K3 (amino acids 182-197 of SEQ ID NO: 1), or GST was immobilized in 96-well plates and analyzed for binding of the phages with the Brk-, Frk-, Yes-, or Abl-SH3 domain.
The following materials and methods are provided to facilitate the practice of the present invention. • Antibodies. Mouse Anti-p27(Kip1), BD Biosciences 610242. Cdk4 (DCS-35), p27 (N-20), C-terminal Brk (C-18), Brk (D-6), N-terminal Brk (N-20), c-Src (SC-18), Cyclin D1 (H 295), ARHGDIA (A-20), Santa Cruz Biotechnology. Anti-beta galactosidase antibody is from RND systems (af6464). Phosphotyrosine (P-Tyr-100), Cell Signaling Technology. Cdk4 (C-term, Cat. No. AP7520b), Abgent. GST (PRB-112C), Covance. Flag (F3165), Actin (A2066), Sigma Aldrich. Phospho Brk (Tyr342), EMD Millipore. pY74, Y88 and Y89 phospho-specific antibodies were generated by immunization of rabbits with phosphor-specific p27 peptides (Invitrogen). Negative- and positive-affinity chromatography with non-phosphorylated and phosphorylated peptides respectively, were performed to purify the antibodies. The antibodies are specific only for Y88,Y89, Y74 phosphorylation respectively (FIG. 2B, data not shown). • Enzymes. Gst-PTK6/Brk, GST-Src (SignalChem), His-Abl (New England Biolabs), His-PTK6/Brk, His-Src (Invitrogen) were used according to manufacturer's specifications. […] Phage supernatants were generated and binding of SH3-phages to recombinantly produced His-tagged-p27 or GST-PxxP-peptides was analyzed as described (28). • Construction of mutants and peptides. […]

[7] = biological target: T6, full-length p27 (Homo sapiens, UniProt P46527); assay: Phage-ELISA of SFK SH3 domain interactions with p27; conditions: phages carry many reiterated SH3 domains, which would enhance binding; read-out: Kd of interaction with full-length p27
T6 construct: made in house; host or cells: E. coli
From the text: as §3
The following materials and methods are provided to facilitate the practice of the present invention. • Antibodies. Mouse Anti-p27(Kip1), BD Biosciences 610242. Cdk4 (DCS-35), p27 (N-20), C-terminal Brk (C-18), Brk (D-6), N-terminal Brk (N-20), c-Src (SC-18), Cyclin D1 (H 295), ARHGDIA (A-20), Santa Cruz Biotechnology. Anti-beta galactosidase antibody is from RND systems (af6464). Phosphotyrosine (P-Tyr-100), Cell Signaling Technology. […] Phage supernatants were generated and binding of SH3-phages to recombinantly produced His-tagged-p27 or GST-PxxP-peptides was analyzed as described (28). • Construction of mutants and peptides. […]

T1 sequence (Q13882 whole entry): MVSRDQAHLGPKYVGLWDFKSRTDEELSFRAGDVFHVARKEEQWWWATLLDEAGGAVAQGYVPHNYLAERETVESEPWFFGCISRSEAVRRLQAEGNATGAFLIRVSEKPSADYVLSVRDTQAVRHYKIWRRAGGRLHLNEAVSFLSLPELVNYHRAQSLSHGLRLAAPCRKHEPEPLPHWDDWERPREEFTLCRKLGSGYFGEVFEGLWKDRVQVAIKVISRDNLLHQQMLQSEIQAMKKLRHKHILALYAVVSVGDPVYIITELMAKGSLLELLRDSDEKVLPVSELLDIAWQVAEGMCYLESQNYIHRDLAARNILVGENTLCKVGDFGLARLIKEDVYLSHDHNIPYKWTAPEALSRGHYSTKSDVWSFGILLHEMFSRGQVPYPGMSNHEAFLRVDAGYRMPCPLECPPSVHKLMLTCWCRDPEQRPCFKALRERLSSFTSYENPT
T1 sequence (P46527 whole entry): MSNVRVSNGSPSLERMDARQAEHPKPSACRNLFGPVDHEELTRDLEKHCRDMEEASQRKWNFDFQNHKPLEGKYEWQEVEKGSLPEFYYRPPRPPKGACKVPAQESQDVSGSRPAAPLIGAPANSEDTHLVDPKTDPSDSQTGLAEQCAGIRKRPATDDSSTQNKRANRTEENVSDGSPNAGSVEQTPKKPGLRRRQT
T4 sequence (P46527 whole entry P91A/P92A/P94A/P95A/P188A/K189A/K190A/P191A): as the sequence (P46527 whole entry) above, with P91A, P92A, P94A, P95A, P188A, K189A, K190A, P191A counted along it
T6 sequence (P46527 whole entry, the tested form may be a part): as the sequence (P46527 whole entry) above
T3 sequence (P46527 whole entry): as above
T2 sequence (Q13882 whole entry): as the sequence (Q13882 whole entry) above

In the case of `N#Cc1ccc(C(c2ccc(C#N)cc2)n2cncn2)cc1` [letrozole], the “median PFS” value [1] is given as 10.2 months.
For “F58-106: Flagged tagged K1-site containing peptide, p27 residues 58 to 106 (RKWNFDFQNHKPLEGKYEWQEVEKGSLPEFYYRPPRPPKGACKVPAQES; also: Flag tag, site not given here)”, the “p27 Y74 phosphorylation by Brk” value [2] was “only slightly reduced”, the “p27 Y88 phosphorylation by Brk” value [2] was “decreased” and the “association with GST-Brk” value [3] was “interacted”.
For “GST-SH2: recombinant GST-tagged SH2 piece of Brk [reference compound]”, the “p27 Y74 phosphorylation by Brk” value [2] was “did not reduce”, the “p27 Y88 phosphorylation by Brk” value [2] was “did not reduce” and the “association with WT p27” value [4] was “bound”. For the same molecule, the “association with ΔK1/K3 p27” value [5] was “bound”.
With “K1: GST-fusion peptide, amino acids 85-102 of p27 (SEQ ID NO: 1) (PEFYYRPPRPPKGACKVP; also: GST-fusion peptide; listed as Homo sapiens)” the “interaction with Brk SH3 domain” value [6] was “weakly”.
For “K2: GST-fusion peptide, amino acids 108-123 of p27 (SEQ ID NO: 1) (DVSGSRPAAPLIGAPA; also: GST-fusion peptide; listed as Homo sapiens)”, the “interaction with Brk SH3 domain” value [6] was “No SH3 domains interacted”.
With “K3: GST-fusion peptide, amino acids 182-197 of p27 (SEQ ID NO: 1) (GSVEQTPKKPGLRRRQ; also: GST-fusion peptide; listed as Homo sapiens)” the “interaction with Brk SH3 domain” value [6] was “strongly”.
In the case of “SH3 domain of Brk: Brk SH3 domain displayed on phages (SEQ ID NO: 2)”, the Kd [7] is reported as 250 nM.
